Among the data in publication PMC4139326, “Functional Roles of the Dimer-Interface Residues in Human Ornithine Decarboxylase” (PLoS ONE, 2014) are Kd values, retold here.

The target in data set [1] is ornithine decarboxylase (Homo sapiens) (UniProt P11926). Conditions: cited from earlier work.
Data set [2] has the same target. The settings on record: cited from earlier work. This is another data set of the same source.
Data set [3] concerns the target antizyme inhibitor (Homo sapiens) (UniProt O14977). Conditions: cited from earlier work.
Data set [4] has the same target. Conditions: cited from earlier work. This is another data set of the same source.
Data set [5] concerns the molecule itself. Put plainly: AUC; sedimentation velocity, 0.3, 0.6 and 0.9 mg/ml protein in 50 mM Tris-HCl pH 7.5, 293 K, 42,000 rpm; global fit to a monomer-dimer equilibrium model (SEDPHAT); dimer to monomers.
The target of data set [6] is T1, human antizyme inhibitor (human), O14977.
T1 chain: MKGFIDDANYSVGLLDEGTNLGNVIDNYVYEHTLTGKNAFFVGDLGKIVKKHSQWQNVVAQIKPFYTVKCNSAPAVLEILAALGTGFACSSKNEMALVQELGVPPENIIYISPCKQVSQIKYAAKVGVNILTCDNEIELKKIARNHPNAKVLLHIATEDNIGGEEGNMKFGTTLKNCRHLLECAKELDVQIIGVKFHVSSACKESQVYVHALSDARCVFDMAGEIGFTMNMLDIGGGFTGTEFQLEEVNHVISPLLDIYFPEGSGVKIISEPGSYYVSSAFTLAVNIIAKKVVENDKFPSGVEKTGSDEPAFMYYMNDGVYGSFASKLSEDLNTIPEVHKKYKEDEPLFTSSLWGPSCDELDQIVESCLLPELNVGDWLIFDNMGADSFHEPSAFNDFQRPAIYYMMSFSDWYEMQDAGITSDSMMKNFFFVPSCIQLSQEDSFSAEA
The data set is described as above. The settings on record: remark: other sources report otherwise.

Positions count from the first letter of the chain named. Like-named read-outs stand apart in the source and are kept apart here.

Chain of ornithine decarboxylase (Homo sapiens) (P11926 whole entry): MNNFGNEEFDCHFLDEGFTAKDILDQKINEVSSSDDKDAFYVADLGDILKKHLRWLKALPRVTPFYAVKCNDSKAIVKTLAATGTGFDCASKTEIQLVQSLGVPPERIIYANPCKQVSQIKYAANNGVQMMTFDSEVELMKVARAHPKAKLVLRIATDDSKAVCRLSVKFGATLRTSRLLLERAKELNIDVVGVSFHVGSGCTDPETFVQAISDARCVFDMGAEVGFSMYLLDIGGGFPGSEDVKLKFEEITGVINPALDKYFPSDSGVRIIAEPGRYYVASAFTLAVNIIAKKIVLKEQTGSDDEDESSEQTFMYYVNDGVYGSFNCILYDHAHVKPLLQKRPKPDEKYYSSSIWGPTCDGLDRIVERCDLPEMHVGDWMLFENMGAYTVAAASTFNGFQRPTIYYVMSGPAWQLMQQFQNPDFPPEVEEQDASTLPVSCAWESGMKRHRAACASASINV

What is called Kd is the equilibrium constant for the complex coming apart. “ornithine decarboxylase (from UniProt P11926)”: the Kd in data set [1] is 180 nM.
Regarding antizyme (from UniProt P54368), the results for the Kd in data set [2] and in data set [3] were 200 nM and 20 nM, respectively.
In the case of “antizyme inhibitor (from UniProt O14977)”, the equilibrium dissociation constant (Kd) in data set [4] is 84000 nM.

B1: human ornithine decarboxylase K169A (enzyme)
chain: EEFDCHFLDEGFTAKDILDQKINEVSSSDDKDAFYVADLGDILKKHLRWLKALPRVTPFYAVKCNDSKAIVKTLAATGTGFDCASKTEIQLVQSLGVPPERIIYANPCKQVSQIKYAANNGVQMMTFDSEVELMKVARAHPKAKLVLRIATDDSKAVCRLSVAFGATLRTSRLLLERAKELNIDVVGVSFHVGSGCTDPETFVQAISDARCVFDMGAEVGFSMYLLDIGGGFPGSEDVKLKFEEITGVINPALDKYFPSDSGVRIIAEPGRYYVASAFTLAVNIIAKKIVLKEQTGSDDEDESSEQTFMYYVNDGVYGSFNCILYDHAHVKPLLQKRPKPDEKYYSSSIWGPTCDGLDRIVERCDLPEMHVGDWMLFENMGAYTVAAASTFNGFQRPTIYYVMSGPAWQLMQQFQNPDFPP
notes: ornithine decarboxylase (ODC), human; cDNA cloned into pQE30
In the case of B1, in data set [5], the Kd is 300 ± 8 nM.

B2: human ornithine decarboxylase V322D (enzyme)
chain: B1 chain with A163K, V316D
notes: as for B1
Consider B2, for which the Kd in data set [5] was found to be 560 ± 12 nM.

B3: human ornithine decarboxylase D332E (enzyme)
chain: B1 chain with A163K, D326E
notes: as for B1
Consider B3, for which the dissociation constant (Kd) in data set [5] amounted to 30 ± 7 nM.

B4: human ornithine decarboxylase R277S (enzyme)
chain: B1 chain with A163K, R271S
notes: as for B1
In the case of B4, the equilibrium dissociation constant (Kd) in data set [5] worked out at 80 ± 6 nM.

B5: human ornithine decarboxylase K294A (enzyme)
chain: B1 chain with A163K, K288A
notes: as for B1
In the case of B5, in data set [5], the Kd worked out at 100 ± 8 nM.

B6: human ornithine decarboxylase Y331S (enzyme)
chain: B1 chain with A163K, Y325S
notes: as for B1
With B6, in data set [5], the Kd turned out to be 1100 ± 8 nM.

B7: human antizyme inhibitor, O14977 1-448 (natural protein)
chain: T1 chain
As to B7, the Kd in data set [6] stood at 72300 nM.
